{"source": "patent US20210190798A1", "about": "(AstraZeneca / MedImmune, published 2021)", "binders": {"B1": {"name": "h5D8 (humanized 5D8 antibody comprising H2 and L2) (antibody, V domains shown)", "VH": "QVQLQESGGGLVKPGGSLRLSCAASGFTFSHAWMHWVRQAPGKGLEWVGQIKAKSDDYATYYAESVKGRFTISRDDSKNTLYLQMNSLKTEDTAVYYCTCWEWDLDFWGQGTMVTVSS", "VL": "DIVMTQTPLSSPVTLGQPASISCRSSQSLLDSDGHTYLNWLQQRPGQPPRLLIYSVSNLESGVPDRFSGSGAGTDFTLKISRVEAEDVGVYYCMQATHAPPYTFGQGTKLEIK", "notes": "also called H2L2; G (H2L2)"}, "B2": {"name": "human LIF (Leukemia Inhibitory Factor), expression host not stated at the place of use (ligand)", "chain": "not shown", "notes": "species not repeated there) and for the cell assays with endogenous or added human LIF; also called hLIF; Bt-LIF"}, "B3": {"name": "A4 (rabbit monoclonal anti-LIF capture antibody) (antibody, V domains shown)", "VH": "EQLEESVGDLVKPGASLTLTCTASGFSFSGLYYMCWVRQAPGKGLEWIACIWTGSTDSTYYATWAKGRFTISKTSSTTVTLQMTSLTVADTATYFCARGGGVPGDGYALWGPGTLVTVSS", "VL": "ELVMTQTPASVSEPVGGTVTINCQASEDISSNLVWYQQKSGQPPKLLIYDASMLASGVPSRFKGSGSGTQFTLTISDLECADGATYYCQSYYVASSSYFVNGFGGGTEVV", "notes": "Rabbit monoclonal antibody; also called capture antibody A4; rabbit A4 monoclonal capture antibody"}, "B4": {"name": "mAb 3 (antibody, V domains shown)", "VH": "B3 VH", "VL": "B3 VL", "notes": "also called chimeric rabbit/human A4 antibody"}}, "key": {"[1]": {"molecular_target": "T1, recombinant human LIFR (LIF receptor) (human, UniProt P42702 45-833, limits assumed)", "T1 construct": "Soluble analyte in the Octet assay and coated on ELISA plates; also called hLIFR", "T1 sequence (looked up)": "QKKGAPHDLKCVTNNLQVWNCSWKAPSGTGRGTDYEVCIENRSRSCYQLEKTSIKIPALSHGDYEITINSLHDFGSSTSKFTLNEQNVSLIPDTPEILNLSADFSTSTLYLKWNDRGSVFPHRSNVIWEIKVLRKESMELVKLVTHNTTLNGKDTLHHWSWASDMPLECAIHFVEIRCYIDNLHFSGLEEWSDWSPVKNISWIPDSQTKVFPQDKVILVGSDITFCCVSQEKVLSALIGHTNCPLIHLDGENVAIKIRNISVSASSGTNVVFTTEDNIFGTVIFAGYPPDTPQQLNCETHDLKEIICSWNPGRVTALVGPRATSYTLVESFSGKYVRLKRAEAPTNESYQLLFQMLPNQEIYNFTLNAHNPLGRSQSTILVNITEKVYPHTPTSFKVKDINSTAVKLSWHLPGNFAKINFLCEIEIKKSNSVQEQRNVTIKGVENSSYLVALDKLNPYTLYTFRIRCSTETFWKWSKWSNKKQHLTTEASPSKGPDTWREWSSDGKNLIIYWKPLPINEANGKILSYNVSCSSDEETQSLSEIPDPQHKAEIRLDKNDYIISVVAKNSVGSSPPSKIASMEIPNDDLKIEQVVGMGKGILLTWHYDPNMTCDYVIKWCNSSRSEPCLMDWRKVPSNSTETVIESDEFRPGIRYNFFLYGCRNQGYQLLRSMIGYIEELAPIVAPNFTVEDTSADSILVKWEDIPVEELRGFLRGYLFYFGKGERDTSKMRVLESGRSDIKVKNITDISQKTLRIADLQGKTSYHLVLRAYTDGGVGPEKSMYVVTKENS", "experiment": "BLI (Octet RED 96), control experiment, h5D8 on AHC biosensor"}, "[2]": {"molecular_target": "B2", "experiment": "cell-based or functional assay"}, "human IL-6 (E. coli)": {"molecular_target": "T2, human IL-6 (E. coli) (human, UniProt P05231 30-212, limits assumed)", "T2 construct": "also called huIL-6 (E. coli)", "T2 sequence (P05231 30-212 limits assumed)": "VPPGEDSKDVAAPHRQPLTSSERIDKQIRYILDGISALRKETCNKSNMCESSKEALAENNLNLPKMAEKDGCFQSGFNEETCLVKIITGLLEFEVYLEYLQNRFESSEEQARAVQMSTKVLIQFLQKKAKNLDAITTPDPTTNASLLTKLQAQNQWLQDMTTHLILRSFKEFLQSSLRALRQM", "experiment": "BLI (Octet), h5D8 amine-coupled on AR2G biosensor, cytokine as analyte", "experimental": "9.0.0.26 as follows: Amine Reactive 2ndGeneration Biosensors (AR2G) were hydrated for a minimum of 15 minutes in water. […] Kinetics experiments were then performed with the following Dip and Read steps at 30° C., 1000rpm: vi) 60 seconds Baseline in lx kinetics buffer; vii) 180 seconds Association of appropriate serial dilutions of a cytokine in lx kinetics buffer; viii) 300 seconds Dissociation in 1X kinetics buffer; ix) Three Regeneration/Neutralization cycles alternating between 10mM glycine pH 2.0 and lx kinetics buffer respectively (5 seconds in each for 3 cycles)."}, "recombinant human gp130": {"molecular_target": "T3, recombinant human gp130 (human, UniProt P40189 23-619, limits assumed)", "T3 construct": "Coated on ELISA plates", "T3 sequence (looked up)": "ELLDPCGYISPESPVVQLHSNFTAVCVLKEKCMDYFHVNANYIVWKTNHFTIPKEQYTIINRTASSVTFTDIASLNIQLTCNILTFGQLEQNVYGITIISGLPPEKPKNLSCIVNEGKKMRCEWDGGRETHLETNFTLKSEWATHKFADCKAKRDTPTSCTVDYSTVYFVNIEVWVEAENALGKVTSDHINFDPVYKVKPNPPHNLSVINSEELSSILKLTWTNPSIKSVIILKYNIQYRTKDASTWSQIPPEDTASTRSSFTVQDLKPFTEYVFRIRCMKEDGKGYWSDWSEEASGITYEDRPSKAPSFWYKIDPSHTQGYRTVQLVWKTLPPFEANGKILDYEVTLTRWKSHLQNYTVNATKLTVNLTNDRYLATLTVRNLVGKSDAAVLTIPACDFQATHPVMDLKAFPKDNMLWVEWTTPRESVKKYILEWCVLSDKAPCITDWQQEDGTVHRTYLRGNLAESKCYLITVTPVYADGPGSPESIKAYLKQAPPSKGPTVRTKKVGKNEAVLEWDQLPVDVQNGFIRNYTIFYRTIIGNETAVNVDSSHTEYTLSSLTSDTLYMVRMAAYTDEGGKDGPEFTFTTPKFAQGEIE", "experiment": "ELISA: LIF pre-incubated with B09 and added to a gp130-coated plate; the mAb part is detected with anti-rat IgG-HRP"}, "[3]": {"molecular_target": "B2", "experiment": "competitive binding assays against LIF"}, "human LIF (HEK-293) [4]": {"molecular_target": "T4, human LIF (HEK-293) (human, UniProt P15018 23-202)", "T4 construct": "Bought recombinant glycosylated protein; also called hLIF (HEK 293); huLIF (mammalian)", "T4 sequence (P15018 23-202 limits assumed)": "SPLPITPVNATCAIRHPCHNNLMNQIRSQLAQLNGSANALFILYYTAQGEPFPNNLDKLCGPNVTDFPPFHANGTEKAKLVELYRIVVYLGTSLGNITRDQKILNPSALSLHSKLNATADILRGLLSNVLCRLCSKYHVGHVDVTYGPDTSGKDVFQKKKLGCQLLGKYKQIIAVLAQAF", "experiment": "MSD electrochemiluminescence sandwich assay (Example 23): A4 spot-coated as capture, Sulfo-Tag 7C3 (M017C3) as detection, rhLIF titrated with saturating h5D8", "text": "Quality controls and samples are transferred in triplicate to the coated and blocked MSD plate. […] The intensity quantified by the system is proportional to the amount of bound antibody complexes and is expressed as RLU (Relative Light Units)."}, "human LIF (HEK-293) [5]": {"molecular_target": "T4, human LIF (HEK-293)", "experiment": "MSD electrochemiluminescence sandwich assay: mAb 3 (chimeric rabbit/human A4) as capture antibody, LIF titrated; detection antibody not named in the figure (7C3 in Example 23)"}}}
{"binder": "B1", "values": [{"measurement": "binding result", "setting": "[1]", "value": "no binding"}, {"measurement": "IC50 for biological inhibition (pSTAT3, U-251 cells, serum starved)", "setting": "[2]", "value": 490, "unit": "picomolar"}, {"measurement": "binding result", "setting": "human IL-6 (E. coli)", "value": "no binding"}]}
{"binder": "B2", "values": [{"measurement": "binding result", "setting": "recombinant human gp130", "value": "binds"}]}
{"binder": "B3", "values": [{"measurement": "binding result", "setting": "[3]", "value": "binds"}, {"measurement": "binding result", "setting": "human LIF (HEK-293) [4]", "value": "binds"}]}
{"binder": "B4", "values": [{"measurement": "binding result", "setting": "human LIF (HEK-293) [5]", "value": "binds"}]}
